Experiment: label from the status in PepcDB records
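Note: failed if final PepcDB status was selected cloned or expressed and not failed if soluble or beyond.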

Sequence	protein production
MATVTKAPKKQIQFADDMQEFTKFPTKTGRRSLSRSISQSSTDSYSSAASYTDSSDDEVSPREKQQTNSKGSSNFCVKNIKQAEFGRREIEIAEQDMSALISLRKRAQGEKPLAGAKIVGCTHITAQTAVLIETLCALGAQCRWSACNIYSTQNEVAAALAEAGVAVFAWKGESEDDFWWCIDRCVNMDGWQANMILDDGGDLTHWVYKKYPNVFKKIRGIVEESVTGVHRLYQLSKAGKLCVPAMNVNDSVTKQKFDNLYCCRESILDGLKRTTDVMFGGKQVVVCGYGEVGKGCCAALKALGAIVYITEIDPICALQACMDGFRVVKLNEVIRQVDVVITCTGNKNVVTREHLDRMKNSCIVCNMGHSNTEIDVTSLRTPELTWERVRSQVDHVIWPDGKRVVLLAEGRLLNLSCSTVPTFVLSITATTQALALIELYNAPEGRYKQDVYLLPKKMDEYVASLHLPSFDAHLTELTDDQAKYLGLNKNGPFKPNYYRY	failed
MGSCCSCLNRDSVPDNHPTKFKVTNVDDEGVELGSGVMELTQSELVLHLHRREAVRWPYLCLRRYGYDSNLFSFESGRRCQTGQGIFAFKCSRAEEIFNLLQDLMQCNSINVMEEPVIITRNSHPAELDLPRAPQPPNALGYTVSSFSNGCPGEGPRFSAPRRLSTSSLRHPSLGEESTHALIAPDEQSHTYVNTPASEDDHRRGRHCLQPLPEGQAPFLPQARGPDQRDPQVFLQPGQVKFVLGPTPARRHMVKCQGLCPSLHDPPHHNNNNEAPSECPAQPKCTYENVTGGLWRGAGWRLSPEEPGWNGLAHRRAALLHYENLPPLPPVWESQAQQLGGEAGDDGDSRDGLTPSSNGFPDGEEDETPLQKPTSTRAAIRSHGSFPVPLTRRRGSPRVFNFDFRRPGPEPPRQLNYIQVELKGWGGDRPKGPQNPSSPQAPMPTTHPARSSDSYAVIDLKKTVAMSNLQRALPRDDGTARKTRHNSTDLPL	not failed
MSMNSEPTPAEAFFLEGNRLLAASECRAAEACFREALALAPDFAEAHANLGMLLDQEGMAAEAERQYRLALALNPRLGHTHSNLGVLLANQKRFEEAESAYLSAIELEPDSPAAWSNLGVLQACRKQEREAEESYRTALRLDPDYHRASFNLSYLLLRQGRFDEGWSLLESRNRRWFARLEEHLPCPRWRGEDLQGRSLLIGLEAGHGDMIQFCRYAPLLKDRGAARITLVCHVALKDLLKTLDGVDTVISFDEILPDDAWDFWTPAMSIPCYCRTRLDSIPARIPYLHADPGLAEQWAAMLEREWAGPEMRIGLAWKGNPHFENDGDRSLPHLKTLEPLGAVAGVRFFSLQKGAGEEEAAQPPAGLPVVNLMRHIAGFADTAALVANLDLVITVDTAVAHLAGALGTECWVLLPEYRTDWRWLTGRTDSPWYPGVMRLFRQPRVGDWETVVAEVGEALRLFAARPRSPRGTR	failed
MAAGALPAREPGLLKPAVLWLLLLAPLFFSTYGFATWVTAQRDDVGSMVFDWERHMPFWAWTIVPYWSIDLLYGFSLLLPRSRDELKRHALRLLTAQVIAVSCFLLWPLSFTFSRPELDGVFGWLFAVLAGFDKPFNQAPSLHIALLVVLWVCYARHTQGFWRWLVHGWFALIGVSVLSTYQHHFIDVPTGALAGWLCVWLWPLDRPSPLFSARAAQDPKRRQLALRYGLGATLFAGAAFAWGGAALWLIWPAVALLLVALNYALLGAEGFQKRQDGSLSPAARWLLAPYLAAAWINSRLWTRKHPQPDPVVDNVWLGRLPTPAELKDSPFDAVLDLCAELSLDSRGLRAYQSLPVLDLCAPSAEQCLAAAHAIERLRQQGPLLVCCALGYSRSATAIAAWLLHSGRAATVDAAIVQIQRARPQIVLHPAHRQALQALSSAGRTAHVH	failed
MSSSTNDYNDGNNNGVYPLSLYLSSLSGHQDIIHNPYNHQLKASPGHMVSAVPESLIDYMAFKSNNVVNQQGFEFPEVSKEIKKVVKKDRHSKIQTAQGIRDRRVRLSIGIARQFFDLQDMLGFDKASKTLDWLLKKSRKAIKEVVQAKNLNNDDEDFGNIGGDVEQEEEKEEDDNGDKSFVYGLSPGYGEEEVVCEATKAGIRKKKSELRNISSKGLGAKARGKAKERTKEMMAYDNPETASDITQSEIMDPFKRSIVFNEGEDMTHLFYKEPIEEFDNQESILTNMTLPTKMGQSYNQNNGILMLVDQSSSSNYNTFLPQNLDYSYDQNPFHDQTLYVVTDKNFPKGKVWIQDSFVN	failed
MTQQTDLQSKTNIDPLAMNDSFLAAADALAVDPMFGIPANVREVIARRGNATRLVILGTKGFGAHLMNVRHERPCEVIAAVDDFRYHSGELYYGLPIISTDRFTELATHDRDLVALNTCRYDGPKRFFDQICRTHGIPHLNFEQAVRAFGLQGNVDYRVDDWGADIVRNIPAFQTLAQRLADDYSVQTLYAVLNFHLTCEPEYYHEVERPYSTLYFRSGLLRFSDSEKMVDCGASIGESLAGLIGVTKGKFERVWMIEPDRINLQTLQNVLRRYTDTNFASRITVHGCGAGENTIRVPFNHEGGHGGFVKPADADHEPADLIDVRPIDDIIDDAPTFIKMDIEGSELSALKGARRAISEHKPKLAISAYHRSTDLLDLTNYILSIRPDYQIGLRHHTPDRWDTCLYFY	not failed
DSFKTKSGKELTITFIKHGSLMLTYDNHSIQVDPVSEYADYTTFPKADIILITHEHGDHLDPKAIQAVEKSDTEIIANENSQKKLGKGKVLKNGDTDTSISYMKIEAVPAYNTTPGRDKYHPRHRDNGYILTFDGLRVYIAGDTEDIPEMKDLKDIDIAFLPVNQPYTMTVSQAAKAARMFSPKILYPYHYGDTKIGELKDALKDSGIDVRIRELQ	not failed
MFKIYNNGNPIPMGYSQAVENNVQITNFALFSAAAIGVELCLFDEQNQETRLPMVRTENVWHLAVTGVKTGTEYAFRIHGEFANPQKLILDPYAKAVNGKPDLSSEESRSWFLLSDNRDNAHLAPRAVVIS	failed
MFVHTKTKKKRKWQRKVFLLLLLFLLPIVSVLAFIVLFIGGGTAESHDVEATTGGVKLSAKQFADKTKLGISEEEAKNALAFADRLMSRHHFTAQATAGVLAVGFRESGFDVKAVNNSGGVAGFFQWSGWGSSVNGDRWKVASKRELTLEVEVDLMSTELDGRYADVVKKVGSATDEKQAAKDWSQYYEGVAVSDGQTKADKIESWATTICEALKSGGTNYAKVNNTGTSSTAIPQGWENISAFDGHAYEGSENYPQGQCTWYVYNRAKQLGVSFSPYMGNGGQWYQVQGYHSSHTPKAHTALSFVNGQAGSDPTYGHVAFVEAVKDDGSILISEMNVYGQPAMTVAYRTFDAETAKQFWYVEGK	failed
SAALAGVFVWDEERIQEEELQRSINEMKRLEEMSNMFQSSGVQHHPPEPKAQTEGNEDSEGKEQRWEMVMDKKHFKLWRRPITGTHLYQYRVFGTYTDVTPRQFFNVQLDTEYRKKWDALVIKLEVIERDVVSGSEVLHWVTHFPYPMYSRDYVYVRRYSVDQENNMMVLVSRAVEHPSVPESPEFVRVRSYESQMVIRPHKSFDENGFDYLLTYSDNPQTVFPRYCVSWMVSSGMPDFLEKLHMATLKAKNMEIKVKDYISAKPLEMSSEAKATSQSSERKNEGSCGPARIEYA	not failed
MDRIPFGIRQLDSIINGGAPAGSVVLLSGEAGAGSREFMHTSALINGLEQVDTELHDLYYGDRSPDAVAPDEVHYISFTTNESQLVSEMRLAMDDDVVDKGSRAVEFHDLSERYFHISPVPREWYASETASITDLRARHEREDLLGTLGMVLNEVAANNLVVIDSLSDLVSAMGEEIEWSDISSLVQGLQKAAHQWGCLLLLHINPETLSTVRHGQLVDASHGTMEFAWESGGSTRARTLVVQQFRGVLSQIEDEDIVQFETELGDAGFDISDVRKIRLEHHHHHH	failed
TIPEGLRAVVFDFDGTILDTETREFHHWQELYREHGRELALSDWQRGVGTWDAFDPWAGLPEQVQADRENVRARLHDTIVSDIAGQDLRPGVRAVLEGVKAAGLRLALATSSDREWVTRWMRQHNLLDLFEAVATRDDVRRVKPDPELYLLAAARLGLRPEECLAVEDSFNGATAAVAAGMRLVVVPNDVTRTQPFPAEWRRLEDGYAGGLAGLL	failed
SRPLGEVYLDSSKPAVYNYPEGAAYEFNAAAAANAQVYGQTGLPYGPGSEAAAFGSNGLGGFPPLNSVSPSPLMLLHPPPQLSPFLQPHGQQVPYYLENEPSGYTVREAGPPAFYRPNSDNRRQG	not failed
MDFLGILCLLILATTLAGHFAHRAGIPAVIGEILVGVILGPALLNWVHLTTLVQTFSDIGVVVLMFIGGLESNLALLRKYLRPAIIVAIIGVIFPVVIMGLASRFFQFSWFESLFIGVIFSATSVSISVEVLKEFKVLDTKEGATILGAAVADDIIGVILLSIMIAMMGGQSGVAQTNLGIVLLEQVGFFIGVFIVIKWVAPYLMRLSDHLLMAASPTIMAIIICLALAWLAELVGLSGAIGAFFAGVAIAQTDYQHVVDVSIEPVGYTTFIPLFFVSVGLNMTFKGVWQSLPFIVVMTVLGVLTKLWGCGLGAKLNGFSRHSNYLVGAGMISRGEMALITAQIGFSAHLLSNDYYSDIILVIIVVTMIAPFVLKNAIHRAGQVTATHSIIEEH	failed
MSDVYNNEAFFKQYMKRRYRENSPNELIEKPAFFQLIGDVKGKKILDLGCGDAIFGKELLEKDCHSYTGIEGSELMYEKAKKQLENKNGIVHFLNLKDYTYPPATFDLVTSRLALHYIEHLPIIFQNVYETLKTNGTFTFSVQHPVITSSFESLQTSGKRTSWLVDDYFKTGKRVEPWIDQKVIKYHRTTEEYFTLLQQAGFTITNLKEATPNQTYFQSAEEYERRLRIPLFLLFSCRKLEHHHHHH	failed
SALTAALSVCPLPSSSFFFAGFLPHKKGRKSRLEFLASIDSTIVLYESPHRIGRLMEEVKEHFPDAQVFAAREITKMHEEYVTGTPDELANHFTGQKQRGEFVVVVHPPDKH	failed
MNLTKVKGNTFFIKGGTNTGIYVFEDNTALMIDPGLCGSRPRRVNKVLDENNIQVRYIINTHGHDDHYGACNQFKEYYKDVCIMSSEYDKLYIENPELFSKYIVGGKSNVFMDNILKNKMLDDIKIDKSIEAGKFELNNEMFDIIEFQGHTPGSIAVLTKDNVIFVGDLLIGDEILSKYDFLFLYDIQEQINSLEKLKNIDFEYLVLGHGKQVISKEDSYKLIEKHLNALKKYLYQIRELLVEPKSLEILLKNIINNNNLSNNYKEYHFFKSSLVSVISYLVDLEEIGYILENGELLYYTKTK	failed
MHTTFTFHLYPWILKYLKGGEGNFKYLHQENPKQEITDSSDKMSFWKDRMLIIPAVDIKDGKCVQLVQGKPGTEQVVLDDPAGVAGRWESLGAETIHVVDLDGALGLEKNTGILKEITERVSVPLQIGGGIRSREYAGKLLDMGFERVILGTMAIENPAIVEELAGEYGSERIMVSLDSRDSRVVIRGWTEKVPFTAEEMARKFQERGAGSILFTNVDFEGLLSGFDLKPVSELVEAVEIPVIYSGGVSSLNDLRMLQGTGVMGVVIGSAIYRGLIDLTEALKYQDLK	failed
MAVAAAKYTTGFWINTIVIILIIAYLVYQLYLYWKRGKISTQLDDDEFRAGMRKAQVIDVREKKEFDAGHILGARNIPYSQMKNRTQELRSDLPVYLYDQGRTFSGRAAMLLSKKGFTQLYILKNGYQRWTGKTKKTKY	failed
MLNTFMFPGQGSQAKGMGGALFDRFADLTAQADAVLGYSIRALCVDDPRDELGRTQFTQPALYVVNALTYYAKCEDSGETPDFLAGHSLGEFNALLAAGCFDFETGLKLVARRAELMSQARDGAMAAIVNASREQIERTLDEHGLVDTAIANDNTPSQLVISGPAHEIARAEALFQHDRVRYLRLNTSGAFHSKFMRPAQQAFAAHLQSFRLADPAIPVISNVSARPYENGRVSEGLAQQIASPVRWCESIRYLLALAAERGEAIEFTELGHGDVLTRLVHTIRRQTPAPAAAATSARARPTPPGEPERPAQQTAAAPRASDSASASLGAAERVAAWNRDYPVGTRVRSSLIHDDVLETRTPATVLFGHRAAVYMKGYNGYFDLAEVTPA	not failed
MSSLILSTFAERLTELGQRTTFLELPPYLDRSFPNSNSGKVVQVGKYLPPEVKHKAVDLLREYKDV	failed

From a protein production outcome set (Wang et al. 2014)
